Reference: patent US7202329 (MYRIAD GENETICS, dated 2007)

Tests used:
[1] = target: T1, VPS28 protein (aa 27-221) (human, UniProt Q9UK41 27-221); test: yeast two-hybrid, breast and prostate cancer library, bait Tsg101 240-391
T1 sequence (looked up): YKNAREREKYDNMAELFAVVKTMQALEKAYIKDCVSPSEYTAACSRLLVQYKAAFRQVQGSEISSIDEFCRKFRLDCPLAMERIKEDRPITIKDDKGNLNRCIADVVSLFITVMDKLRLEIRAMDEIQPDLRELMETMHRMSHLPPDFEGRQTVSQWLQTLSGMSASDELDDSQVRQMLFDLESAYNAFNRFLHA

[2] = target: T2, GTPase-activating protein 1 (aa 1413-1567) (UniProt P46940 1413-1567); test: yeast two-hybrid
T2 construct: range 1413-1567; also called IQGAP1; IQGAP
T2 sequence (looked up): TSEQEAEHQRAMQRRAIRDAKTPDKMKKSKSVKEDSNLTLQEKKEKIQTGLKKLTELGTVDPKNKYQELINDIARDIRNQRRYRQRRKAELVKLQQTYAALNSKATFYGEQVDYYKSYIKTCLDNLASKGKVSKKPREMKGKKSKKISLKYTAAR

[3] = target: T3, GTPase-activating protein 1 (aa 1308-1606) (UniProt P46940 1308-1606); test: yeast two-hybrid
T3 construct: range 1308-1606; also called IQGAP1; IQGAP
T3 sequence (looked up): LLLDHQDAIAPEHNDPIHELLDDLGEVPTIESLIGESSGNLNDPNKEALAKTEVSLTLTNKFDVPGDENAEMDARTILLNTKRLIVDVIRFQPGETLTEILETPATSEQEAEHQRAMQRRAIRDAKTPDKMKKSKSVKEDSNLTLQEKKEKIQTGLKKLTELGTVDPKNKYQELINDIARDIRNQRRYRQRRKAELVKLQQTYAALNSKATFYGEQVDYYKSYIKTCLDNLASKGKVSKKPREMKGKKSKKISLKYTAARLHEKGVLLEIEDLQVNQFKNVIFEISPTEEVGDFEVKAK

[4] = target: T4, mitotic spindle coiled-coil related protein (aa 668-895) (UniProt Q96R06 668-895); test: yeast two-hybrid
T4 construct: range 668-895
T4 sequence (looked up): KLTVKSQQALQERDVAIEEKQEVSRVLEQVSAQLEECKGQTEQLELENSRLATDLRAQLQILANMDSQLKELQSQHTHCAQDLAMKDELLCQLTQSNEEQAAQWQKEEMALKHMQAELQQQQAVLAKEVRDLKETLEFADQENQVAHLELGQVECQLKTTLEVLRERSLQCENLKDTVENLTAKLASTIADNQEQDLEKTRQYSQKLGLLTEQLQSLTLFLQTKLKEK

[5] = target: T5, intersectin 1 (aa 387-611) (UniProt Q15811 387-611); test: yeast two-hybrid
T5 construct: range 387-611
T5 sequence (looked up): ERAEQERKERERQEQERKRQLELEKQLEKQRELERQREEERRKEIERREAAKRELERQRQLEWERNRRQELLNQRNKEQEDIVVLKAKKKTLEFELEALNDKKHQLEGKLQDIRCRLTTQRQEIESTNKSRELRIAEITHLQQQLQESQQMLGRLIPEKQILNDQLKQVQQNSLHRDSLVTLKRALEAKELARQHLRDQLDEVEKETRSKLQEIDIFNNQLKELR

[6] = target: T6, GTPase-activating protein 1 (aa 1299-1555) (UniProt P46940 1299-1555); test: yeast two-hybrid
T6 construct: range 1299-1555; also called IQGAP1; IQGAP
T6 sequence (looked up): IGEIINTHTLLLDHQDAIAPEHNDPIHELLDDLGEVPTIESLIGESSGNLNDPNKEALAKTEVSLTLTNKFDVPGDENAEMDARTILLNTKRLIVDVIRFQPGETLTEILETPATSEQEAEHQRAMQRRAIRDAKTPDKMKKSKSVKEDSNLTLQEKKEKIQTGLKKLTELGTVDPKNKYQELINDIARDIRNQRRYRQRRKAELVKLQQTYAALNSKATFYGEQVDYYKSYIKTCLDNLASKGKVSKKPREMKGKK

[7] = target: T7, pallid (aa 21-172) (UniProt Q9UL45 21-172); test: yeast two-hybrid
T7 construct: range 21-172
T7 sequence (looked up): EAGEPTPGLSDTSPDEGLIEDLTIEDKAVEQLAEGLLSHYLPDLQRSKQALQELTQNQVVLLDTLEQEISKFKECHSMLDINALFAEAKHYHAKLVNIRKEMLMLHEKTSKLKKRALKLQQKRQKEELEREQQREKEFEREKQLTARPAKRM

[8] = target: T8, hook2 protein (aa 201-559) (UniProt Q96ED9 201-559); test: yeast two-hybrid
T8 construct: range 201-559
T8 sequence (looked up): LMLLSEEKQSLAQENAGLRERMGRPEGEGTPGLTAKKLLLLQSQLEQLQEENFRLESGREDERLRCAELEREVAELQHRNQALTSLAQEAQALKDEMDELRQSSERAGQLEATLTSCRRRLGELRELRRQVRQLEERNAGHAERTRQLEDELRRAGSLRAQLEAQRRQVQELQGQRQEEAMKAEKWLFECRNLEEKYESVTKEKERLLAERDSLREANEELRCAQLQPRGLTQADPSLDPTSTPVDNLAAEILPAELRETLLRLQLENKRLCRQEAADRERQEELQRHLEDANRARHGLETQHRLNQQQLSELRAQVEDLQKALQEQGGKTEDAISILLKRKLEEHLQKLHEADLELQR

Measured: binding result

B1: Tsg101 (aa 240-391) (other, human, UniProt Q99816 240-390, looked up)
chain: WRMKEEMDRAQAELNALKRTEEDLKKGHQKLEEMVTRLDQEVAEVDKNIELLKKKDEELSSALEKMENQSENNDIDEVIIPTAPLYKQILNLYAEENAIEDTIFYLGEALRRGVIDLDVFLKHVRLLSRKQFQLRALMQKARKTAGLSDLY
notes: range 240-391; also called C-terminal fragment of Tsg101; amino acid residues 240-390
binds: [1] | [2] | [3] | [4] | [5] | [6] | [7] | [8]
